Reference: patent US9201073B2, “Methods and compositions for enhancing proteasome activity” (President and Fellows of Harvard College, priority 2007, dated 2015)

T1: proteasome (Saccharomyces cerevisiae, UniProt P43593)
T1 sequence (P43593 1-499): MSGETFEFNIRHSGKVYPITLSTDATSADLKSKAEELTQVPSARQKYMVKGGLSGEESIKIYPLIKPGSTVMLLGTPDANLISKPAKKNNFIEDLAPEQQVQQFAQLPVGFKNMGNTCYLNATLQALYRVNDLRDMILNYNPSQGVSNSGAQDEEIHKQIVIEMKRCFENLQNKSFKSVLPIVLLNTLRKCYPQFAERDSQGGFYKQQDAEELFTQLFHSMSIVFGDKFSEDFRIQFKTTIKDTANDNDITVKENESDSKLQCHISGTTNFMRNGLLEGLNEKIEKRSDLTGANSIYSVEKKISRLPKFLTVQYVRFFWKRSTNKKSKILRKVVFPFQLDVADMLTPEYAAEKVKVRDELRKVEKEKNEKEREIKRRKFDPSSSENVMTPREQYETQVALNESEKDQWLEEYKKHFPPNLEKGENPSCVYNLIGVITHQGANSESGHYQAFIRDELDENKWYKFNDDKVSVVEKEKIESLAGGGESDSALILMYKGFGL

B1: Ubp6: yeast proteasomal deubiquitinating enzyme, endogenous proteasome inhibitor; purified recombinant protein (protein)
chain: T1 sequence (P43593 1-499)
B2: GST-Ubp6: GST fusion of Ubp6 on resin (protein)
chain: T1 sequence (P43593 1-499)
modifications: left off: a dimerising Fc or GST
notes: GST fusion of Ubp6 on resin

Key:
[1] = target: T2, ubp6Δ proteasomes (Saccharomyces cerevisiae, UniProt P30656+P43588); assay: In vitro ub-cyclin B deubiquitination/degradation assay with purified yeast proteasomes; type: biochemical; settings: ubp6Δ proteasomes 135 nM; recombinant Ubp6 or Usp14 species 540 nM, Ubl and Ubl-MBP 1.35 μM, preincubated 5 min; immunoblot
T2 construct: proteasomes purified from ubp6Δ mutants; TEV-ProA (TEV site + protein A), chromosomally integrated (C); made in house
Procedure: Proteasomes (135 nM) were incubated with ub-cyclin Bin the presence of 1 mM ATP and buffer (50 mM Tris [pH 7.51, 1 mM EDTA, 5 mM MgCl2) for the indicated times. Reactions were terminated by the addition of 5×SDS Laemmli loading buffer (Leggett, et al. (2002). Multiple associated proteins regulate proteasome structure and function. Mol. Cell. 10, 495-507) and boiled for 5 min. Where indicated, recombinant, purified Ubp6 or Usp14 species (540 nM) were preincubated with proteasomes for 5 min prior to the reaction. […] Unless otherwise noted, immunoblots were visualized with anti-cyclin B1 polyclonal antibodies. Polyclonal antibodies recognizing Ubp6, Rpn5, Rpn12, and ubiquitin were used as indicated. Ub-cyclin B was added in molar excess over proteasome, generally on the order of 25-fold, except for FIGS. 4C, 6A and 6B, where the substrate:enzyme ratio was increased by a factor of five.
In the experiments of FIGS. 1, 4 (except FIG. 4C), and 6C, time points were sampled after the preparation of a single reaction mixture. The zero time points therefore reflect a lag which represents the amount of time required to sample the first time point after having prepared the reaction mixture. […] In the experiments of FIGS. 2, 4C, and 6 (except 6C), each time point was carried out as an independent reaction. The zero time points were prepared in the presence of 5×LLB, and accordingly, no processing could occur before time zero.
Ubiquitination of cyclin B was carried out. Briefly, for each 30 μl reaction, Anaphase Promoting Complex (APC) was immunopurified from 600 μl of mitotic Xenopus egg extract with 12 μg of anti-Cdc27 antibodies (AF3.1, Santa Cruz Biotechnologies, Santa Cruz, Calif.) bound to 30 μl of Affiprep Protein A beads (Bio-Rad, Hercules, Calif.). Beads were washed three times with XB high salt (10 mM potassium HEPES pH 7.7, 500 mM KCl, 0.1 mM CaCl2, 1 mM MgCl2), two times with XB (same but with 100 mM KCl), and then three times into the reaction buffer (20 mM Tris pH 7.5, 100 mM KCl, 2.5 mM MgCl2, 2 mM ATP). Ubiquitination reactions contained immunoprecipitated APC on 30 μl of beads, and 30 μl of a mix containing recombinant MBP-human E1 at 200 μg/ml, histidine-tagged Ubc4 at 66 μg/ml, ubiquitin at 1.25 mg/ml, and 50 μg/ml of histidine-tagged cyclin B1/cdc2 complex expressed in baculovirus. Reactions were incubated for 90 minutes at 22° C. with agitation on a shaker at 1,000 RPM. Reaction supernatants were combined with the eluate from the wash of beads with 20 μl of reaction buffer. Reactions were either used fresh after preparation or frozen at −80° C. until use with purified proteasomes.

[2] = target: T3, 26S human proteasomes (Homo sapiens, UniProt O00487); assay: In vitro Ubn-cyclin B1 degradation assay with human proteasomes; type: biochemical; settings: 4 nM human proteasomes, about 30 nM ubiquitinated cyclin B, Usp14 60 nM preincubated 5 min
T3 construct: HTBH (C); made in house; complex purified from it
Procedure: A stable 293 cell line expressing hRpn11-HTBH was used. Human proteasomes were purified as previously described with some modifications (Wang X and Huang L (2007) Identifying dynamic interactors of protein complexes by quantitative mass spectrometry. Mol Cell Proteomics. 2008 January; 7(1):46-57. Epub 2007 Oct. 12.
Assays were performed in proteasome preparation buffer (50 mM Tris [pH 7.5], 5 mM MgCl2, and 5 mM ATP) at ambient temperature for the indicated times. The 26S human proteasomes (4 nM) were incubated with approximately 30 nM of Ub-conjugated cyclin B1 as substrates. Cyclin was ubiquitinated using purified APC ubiquitin ligase. Where indicated, a 15-fold molar access of recombinant Usp14 over proteasomes were preincubated prior to adding Ubn-cyclin B1.
In the study shown in FIG. 14, 4 nM of human proteasomes were incubated with approximately 30 nM of ubiquitinated cyclin B in buffer (50 mM Tris [pH 7.5], 5 mM MgCl2, and 5 mM ATP). Where indicated, 15-fold molar access of Usp14 over proteasome (60 nM) was preincubated for 5 min before initiating degradation reactions. Ubiquitinated cyclin B was added at time zero. SDS-sample buffer was added to stop the reaction at the indicated time. Usp14 CA is a variant of Usp14 with a single amino acid substitution that eliminates the active site nucleophile of the enzyme (a cysteine to alanine replacement). […]

[3] = test system: ubiquitin ethyl ester; settings: cited from earlier work
[4] = target: T1, proteasome; settings: cited from earlier work
[5] = target: T4, RP purified from a ubp6Δ mutant (Saccharomyces cerevisiae, UniProt P43588); assay: Processing of ub-cyclin B by regulatory particle (RP); type: biochemical, yeast; settings: RP 135 nM, four-fold molar excess of Ubp6 species
T4 construct: TEV-ProA (TEV site + protein A), chromosomally integrated (C); made in house
Procedure: FIGS. 6A and 6B depict the processing of ub-cyclin B by RP (ubp6Δ) in the presence or absence of purified Ubp6. Reactions were visualized by immunoblotting with anti-cyclin B antibody or anti-ubiquitin antibody, as indicated.
FIG. 12 is an illustration depicting the RP-mediated disassembly of Ub-cyclin B conjugates by Ubp6. Proteasome regulatory particle (135 nM) purified from a ubp6Δ strain was combined with a four-fold molar excess of Ubp6, Ubp6-ublΔ, or Ubp6-C118A, and Ub-Cyclin B, and incubated for the indicated times. Reactions were visualized by immunoblot with anti-ubiquitin antibody. *represents a non-ubiquitin immunoreactive band.
A previously described procedure for purification of the proteasome (Leggett, et al. (2002). Multiple associated proteins regulate proteasome structure and function. Mol. Cell. 10, 495-507) was modified by adding 1 mM ATP and 5 mM MgCl2 to all purification buffers, and by washing resins with 100 bed vol. of buffer containing 50 mM NaCl, as opposed to 50 bed vol. of buffer containing 100 mM NaCl. RP was purified in the presence of ATP and MgCl2 as described (Leggett et al., 2002).
Proteasomes (135 nM) were incubated with ub-cyclin Bin the presence of 1 mM ATP and buffer (50 mM Tris [pH 7.51, 1 mM EDTA, 5 mM MgCl2) for the indicated times. […]

[6] = target: T2, ubp6Δ proteasomes; assay: Quantitation of proteasome inhibition by quantitative mass spectrometry of cyclin B; type: biochemical, yeast; settings: 20-minute incubation
Procedure: A standard substrate degradation assay was carried out, and analyzed in parallel by SDS-PAGE followed by Coomassie blue staining and immunoblot with anti-cyclin B antibody. Immunoblots were used to identify and excise the cyclin B-containing regions of the Coomassie-stained gel, and the lanes were analyzed by mass spectrometry.
To quantify the extent of proteasome inhibition by Ubp6, a method of quantitative mass spectrometry was utilized. After a 20-minute incubation, approximately half of the total cyclin B was degraded by ubp6Δ proteasomes (FIG. 4C).

[7] = target: T5, Ub-cyclin B (Homo sapiens, UniProt P14635); assay: Ub-cyclin B binding assay (GST pull down); settings: GST resin pull down, immunoblot
T5 construct: histidine tag; made in house; host or cells: cyclin B1/cdc2: baculovirus expression; GST-Ubp6: pGEX-4T-1 (bacterial)
T5 sequence (P14635 whole entry, other chains not shown): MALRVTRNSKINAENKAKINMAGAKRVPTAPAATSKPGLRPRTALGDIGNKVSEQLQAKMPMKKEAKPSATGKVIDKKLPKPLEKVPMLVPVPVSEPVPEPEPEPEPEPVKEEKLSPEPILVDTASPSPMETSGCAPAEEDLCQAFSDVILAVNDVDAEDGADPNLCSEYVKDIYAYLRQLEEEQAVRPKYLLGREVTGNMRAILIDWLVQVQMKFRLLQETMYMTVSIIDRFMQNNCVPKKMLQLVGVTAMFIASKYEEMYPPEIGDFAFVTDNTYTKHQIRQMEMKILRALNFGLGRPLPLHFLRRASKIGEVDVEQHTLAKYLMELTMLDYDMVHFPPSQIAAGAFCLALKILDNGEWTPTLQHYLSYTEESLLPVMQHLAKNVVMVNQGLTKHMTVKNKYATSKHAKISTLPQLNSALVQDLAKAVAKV
T5 sequence (P06493 whole entry partner, other chains not shown): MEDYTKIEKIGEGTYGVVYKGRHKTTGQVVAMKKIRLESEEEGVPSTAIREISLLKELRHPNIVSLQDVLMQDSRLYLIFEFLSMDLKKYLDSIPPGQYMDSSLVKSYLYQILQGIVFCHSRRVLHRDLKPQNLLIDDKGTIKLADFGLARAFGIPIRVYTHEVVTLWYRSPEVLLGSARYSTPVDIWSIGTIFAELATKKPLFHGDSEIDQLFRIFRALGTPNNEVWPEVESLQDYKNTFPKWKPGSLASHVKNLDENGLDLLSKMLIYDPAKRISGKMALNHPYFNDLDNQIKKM

| Molecule | inhibition of cyclin B degradation [1] | suppression of cyclin B degradation by human proteasomes [2] | KM of Ubp6 for ubiquitin ethyl ester [3] | activation of Ubp6's catalytic activity on binding to the proteasome [4] | processing of ub-cyclin B conjugates by RP [5] | inhibition of degradation (cyclin B) [6] | binding of Ub-cyclin B conjugates [7] |
| --- | --- | --- | --- | --- | --- | --- | --- |
| Usp14: human homolog of Ubp6, purified recombinant deubiquitinating enzyme | largely recapitulated the effects of Ubp6 | suppression of cyclin B degradation |  |  |  |  |  |
| B1 | marked inhibition of cyclin B degradation |  | so high as to be unmeasurable | over 300 fold | chain shortening | approximately 70% |  |
| B2 |  |  |  |  |  |  | No detectable binding |
